Measurements taken from patent publication US20110124564A1, “NUCLEOLIN-BINDING PEPTIDES, NUCLEOLIN- BINDING LYTIC PEPTIDES, FUSION CONSTRUCTS AND METHODS OF MAKING AND USING SAME” (ESPERANCE PHARMACEUTICALS, INC., published 2011).

Experiments:
[1] = molecular target: T1, nucleolin expressed on the surface of human cancer cell lines (human, UniProt P19338); experiment: cell-based or functional assay
[2] = molecular target: T1, nucleolin expressed on the surface of …; experiment: cell-based or functional assay; remark: listed apart in the source
[3] = molecular target: nucleolin on CHO (Hamster Ovary) cells (hamster)
[4] = molecular target: T1, nucleolin expressed on the surface of …; experiment: cell-based or functional assay; remark: listed apart in the source

B1: EP-302 (peptide)
chain: KFAKFAKKFAKFAKKFAKRARLQRRSARLSAK
IC50 of cytotoxicity (MTT), MDA-MB-435S breast cancer cells, time course, 30 minutes [1]: 2.3 µM
IC50 of cytotoxicity (MTT), A549 (Lung) cells, 6 h [2]: 4.3 µM
IC50 of cytotoxicity (MTT), A549 (Lung) cells, 24 h [2]: 2.4 µM
IC50 of cytotoxicity (MTT), DU145 (Prostate) cells, 6 h [2]: 3.1 µM
IC50 of cytotoxicity (MTT), DU145 (Prostate) cells, 24 h [2]: 5.1 µM
IC50 of cytotoxicity (MTT), Daudi (NHL) cells, 6 h [2]: 3.2 µM
IC50 of cytotoxicity (MTT), Daudi (NHL) cells, 24 h [2]: 2.5 µM
IC50 of cytotoxicity (MTT), HL60 (Acute Myeloid Leukemia) cells, 24 h [2]: 0.5 µM
IC50 of cytotoxicity (MTT), HT 29 (Colon) cells, 6 h [2]: 45.8 µM
IC50 of cytotoxicity (MTT), HT 29 (Colon) cells, 24 h [2]: 26.2 µM
IC50 of cytotoxicity (MTT), HT 116(Colon) cells, 6 h [2]: 6.7 µM
IC50 of cytotoxicity (MTT), HT 116(Colon) cells, 24 h [2]: 4.8 µM
IC50 of cytotoxicity (MTT), K562 (Chronic Myeloid Leukemia) cells, 24 h [2]: 2.8 µM
IC50 of cytotoxicity (MTT), LoVo (Colon) cells, 6 h [2]: 14.1 µM
IC50 of cytotoxicity (MTT), LoVo (Colon) cells, 24 h [2]: 12.5 µM
IC50 of cytotoxicity (MTT), MCF-7 (Breast) cells, 6 h [2]: 5.5 µM
IC50 of cytotoxicity (MTT), MCF-7 (Breast) cells, 24 h [2]: 6.4 µM
IC50 of cytotoxicity (MTT), MDA-MB-231 (Breast) cells, 6 h [2]: 4.6 µM
IC50 of cytotoxicity (MTT), MDA-MB-231 (Breast) cells, 24 h [2]: 3.6 µM
IC50 of cytotoxicity (MTT), MDA-MB-435S (Breast) cells, 6 h [2]: 1.4 µM
IC50 of cytotoxicity (MTT), MDA-MB-435S (Breast) cells, 24 h [2]: 1.7 µM
IC50 of cytotoxicity (MTT), MV4-11(Acute Myeloid Leukemia) cells, 24 h [2]: 0.5 µM
IC50 of cytotoxicity (MTT), MiaPaCa (Pancreas) cells, 6 h [2]: 2.1 µM
IC50 of cytotoxicity (MTT), MiaPaCa (Pancreas) cells, 24 h [2]: 1.9 µM
IC50 of cytotoxicity (MTT), OVCAR-3 (Ovary) cells, 6 h [2]: 5.2 µM
IC50 of cytotoxicity (MTT), PC-3 (Prostate) cells, 6 h [2]: 3.3 µM
IC50 of cytotoxicity (MTT), PC-3 (Prostate) cells, 24 h [2]: 3.2 µM
IC50 of cytotoxicity (MTT), SKOV-3 (Ovary) cells, 6 h [2]: 5.1 µM
IC50 of cytotoxicity (MTT), SKOV-3 (Ovary) cells, 24 h [2]: 5.2 µM
IC50 of cytotoxicity (MTT), CHO (Hamster Ovary) cells, 6 h [3]: 3.1 µM
IC50 of cytotoxicity (MTT), CHO (Hamster Ovary) cells, 24 h [3]: 3.7 µM
IC50 of cytotoxicity (MTT), MDA-MB-435S breast cancer cells, 4 h [4]: 0.9 µM
